Results published in US9097721B2, “Compositions comprising engineered phosphothreonine affinity reagents, methods of making, and methods of use” (The Board of Trustees of the University of Illinois, priority 2012, dated 2015).
“And” between values parts separate entries of the source, which are not always exact repeats. Equal entries are not always repeated. “Also recorded” adds a separate entry of the source.

Experiments:
Rad9-pT peptide [1] = molecular target: T1, Rad9-pT peptide (Saccharomyces cerevisiae, UniProt P14737); assay: Phage ELISA of phage-displayed FHA1 domains; type: binding, yeast; details: M13 protein III fusion, DsbA signal sequence
T1 construct: host or cells: chemical synthesis
Method: To amplify the phage particles displaying the recombinant FHA1 variants, TG1 bacterial cells (5 mL; Stratagene) harboring the phagemid DNA were infected at mid-log (OD600nm=0.5-0.6) with M13K07 helper phage (New England Biolabs) at a multiplicity of infection (MOI) of 20 for 1 h at 37° C. at 150 rpm. Infected cells were centrifuged, and the pellet was resuspended in fresh Luria Bertani medium (LB: 10 g Tryptone, 5 g Yeast extract, and 10 g NaCl per liter) supplemented with 50 μg/mL carbenicillin and 50 μg/ml kanamycin, and phage were amplified overnight at 30° C. at 250 rpm. All of the phage ELISA steps were performed at room temperature. Biotinylated peptides (100 μL, 5 μg/mL) were immobilized on Nunc MaxiSorp flat-bottom 96 well plates (Thermo Fisher Scientific) via NeutrAvidin™ Biotin binding protein (100 μL, 10 μg/mL; Thermo Fisher Scientific) and blocked with 2% skim milk in 1×PBS (200 μL per well). After washing with Phosphate Buffered Saline (PBS: 0.14 M Sodium Chloride, 0.003 M Potassium Chloride, 0.002 M Potassium Phosphate, and 0.01 M Sodium Phosphate), the wells were incubated with the phage supernatant (100 μL of phage diluted 1:2 with PBS containing 0.1% Tween 20 (PBST)) for 1 h and washed three times with PBST. The binding phage were detected using anti-M13 antibody conjugated to horse radish peroxidase (HRP) (GE Healthcare) diluted 1:5000 with PBST. After washing away the unbound antibody, the chromogenic substrate for HRP; 2,2′-Azinobis (3-ethylbenzothiazoline-6-Sulfonic Acid) diammonium salt (Thermo Fisher Scientific), supplemented with hydrogen peroxide was added (100 μL per well), and the absorbance of the green colored complex was measured at 405 nm on POLARstar OPTIMA microtiter plate reader (BMG Labtech).

Rad9-pT peptide [2] = molecular target: T1, Rad9-pT peptide; assay: ELISA of GST fusions of FHA1 domains; type: binding, yeast; details: expressed in bacterial cytoplasm as GST fusion
Method: For production of FHA1-GST fusion protein, BL21 DE3 cells (10 mL; Stratagene) harboring the expression vector was grown overnight at 30° C. using the Overnight Express™ Autoinduction System 1 (Novagen). The next day, cells were lysed using BugBuster® 10× Protein Extraction Reagent (Novagen) following the manufacturer's instructions. Cell lysate (100 μL diluted 1:5 with PBST) was incubated with the biotinylated peptides as described above and detected using anti-GST antibody conjugated to HRP (diluted 1:10,000 with PBST; GE Healthcare).

[3] = Fluorescence-based thermal shift (FTS) assay, melting temperature; type: physicochemical; details: for thermal stability compared with the starting D2 domain: isolated after selection with library heated to 50° C.; for Tm (° C.): mid-point of melting curve
Method: (§1) The FTS assay was performed on a MxPro-Mx3005P instrument (Stratagene) following the protocol described by Giuliani et al (Giuliani et al. (2008) Biochemistry 47, 13974-84). It is a real-time assay using the SYBR® Green experiment setting with dissociation curve. The default FRROX filter set was used with an excitation wavelength of 492 nm and emission wavelength of 610 nm. FHA1 domains diluted with PBS to 2× final concentration (i.e. 2 μM and 8 μM) were mixed with 10×SYPRO® Orange protein gel stain (Invitrogen; 5000× concentration in DMSO) to give a final dye concentration of 10×. Then, to the protein wells only, 10 μL of the dye+protein mixture was added along with 10 μL of 1×PBS buffer. In other wells, 10 μL of either the pT peptide or its non-phosphorylated form (diluted to 2× final concentration with PBS, i.e. 100 μM and 500 μM) was added to 10 μL of dye+protein mixture. The final reaction volume was 20 μL with final concentrations of 1 μM or 4 μM of FHA1 domains, 50 μM or 250 μM of pT and non-phosphorylated peptides and 5× final concentration of the SYPRO® Orange. The assay was performed in duplicate in 96 well white PCR plates (BIO-Rad) covered with optically clear Microseal® ‘B’ Film (Bio-Rad) and heated from 25° C. to 95° C. and the melting curve was obtained with fluorescence (R) values plotted on the Y-axis and increasing temperature (° C.) on the X-axis. The mid-point of the curve gives the melting temperature (Tm), which shifts to a higher temperature in the presence of the pT peptide.
To evaluate the thermal stability of the D2 variant, phage particles displaying the D2 variant were heated at various temperatures (30° C., 37° C., 50° C., 60° C., 70° C., 80° C., and 95° C.) prior to incubation with the cognate pT peptide (Rad9-pT) and the non-phosphorylated form of the same peptide (Rad9-T). […] (FIG. 8). The D2 variant (purified six-his tagged protein) was mixed with SYPRO orange dye with or without the Rad9-pT-containing peptide and heated from 25° C. to 95° C. in a real-time PCR experiment known as the Fluorescence-based thermal shift (FTS) assay^36. In this assay, initially, the fluorescence of SYPRO orange dye is quenched in the aqueous environment of a folded protein, but as the protein starts to unfold upon heating, the dye interacts with the hydrophobic core of the protein and its fluorescence increases. Therefore, an increase in fluorescence of the dye is directly proportional to protein unfolding, until a temperature (referred to as Tm here) is reached at which the dye fluorescence decreases due to aggregation and precipitation of the protein. The melting temperature (Tm) of the D2 variant was determined by fluorescence-based thermal shift (FTS) assay to be approximately 5° C. lower than the Tm of the WT FHA1 domain. To improve the thermal stability of the D2 variant, affinity selection was carried out by heating the phage library displaying D2 variants at 50° C. prior to incubation with the pT peptide ligand to favor the isolation of variants that remained folded and functional above 50° C.
(§2) The Tm values of FHA1 variants were determined by FTS assay (Giuliani et al. (2008) Biochemistry 47, 13974-84). A representative Tm curve for the G2 variant at 1 μM concentration is shown (solid squares), alone and in the presence of the pT peptide (FIG. 11). […] The Tm values of the thermally stable variants (along with WT and D2 variant) at 1 μM and 4 μM concentration, along with the Tm shift in the presence of two different concentrations (50 μM and 250 μM) of the pT peptide, are listed in Table S3.
The Tm (temperature at which 50% of the protein is unfolded) of the protein domain variants was determined by a fluorescence-based thermal shift assay (Giuliani et al. (2008) Biochemistry 47, 13974-84). The proteins were mixed with SYPRO orange dye, and heated from 25° C. to 95° C. on a real-time thermocycler. […]

[4] = molecular target: T2, cognate pT peptide (Rad9-pT) (Saccharomyces cerevisiae, UniProt P14737); assay: FTS assay, Tm shift in the presence of the cognate pT peptide; type: binding, yeast
T2 construct: host or cells: chemical synthesis
Method: as §1, §2

[5] = molecular target: T3, pT peptide (Rad 9-pT: SLEVpTEADATFYAKK) (Saccharomyces cerevisiae, UniProt P14737); assay: Isothermal titration calorimetry (ITC); type: binding, yeast; details: in solution by ITC; FHA1 domain 35 μM in cell
T3 construct: host or cells: chemical synthesis
Method: A fixed amount (10 μL) of the pT peptide (Rad 9-pT: SLEVpTEADATFYAKK (SEQ ID NO:9); 500 μM) was injected from the syringe into the sample cell containing the FHA1 domain (35 μM). […] Each measurement was repeated three times.
The affinity of the G2 variant and the WT FHA1 domain to the pT peptide (SLEVpTEADATFYAKK) (SEQ ID NO:9) was determined by ITC (FIG. 12). The sample cell contained the purified FHA1 domains (35 μM) and the injection syringe was filled with the pT peptide (350 μM). […] The FHA1 domains bound to the pT peptide with a stoichiometry of 1:1, and the ITC graph was fitted by the single site binding model.

[6] = system: non-phosphorylated form of the same peptide; assay: FTS assay, Tm shift in the presence of the non-phosphorylated peptide; type: binding, yeast
Method: as §1, with “The final reaction volume was 20 μL with final concentrations of 1 μM or 4 μM of FHA1 domains, 50 μM or 250 μM of pT and non-phosphorylated peptides and 5× final concentration of the SYPRO® Orange.” left out, “The mid-point of the curve gives the melting temperature (Tm), which shifts to a higher temperature in the presence of the pT peptide.” left out
The Tm values of FHA1 variants were determined by FTS assay (Giuliani et al. (2008) Biochemistry 47, 13974-84). […]

[7] = 250 μM pT peptide, protein 1 μM
[8] = 250 μM pT peptide, protein 4 μM

| Molecule | binding to Rad9-pT peptide when phage-displayed (Rad9-pT peptide [1]) | binding of GST fusion to Rad9-pT peptide (Rad9-pT peptide [2]) | thermal stability compared with the starting D2 domain [3] | Tm (° C.) ([3]; protein concentration 1 μM) [°C] | Tm (° C.) ([3]; protein concentration 4 μM) [°C] | Tm shift (° C.) in the presence of pT peptide ([4]; 50 μM pT peptide, protein 1 μM) [°C] | Tm shift (° C.) in the presence of pT peptide ([4]; 50 μM pT peptide, protein 4 μM) [°C] | Tm shift (° C.) in the presence of pT peptide [4, 7] [°C] | Tm shift (° C.) in the presence of pT peptide [4, 8] [°C] | Kd [5] | shift in the Tm [6] |
| --- | --- | --- | --- | --- | --- | --- | --- | --- | --- | --- | --- |
| 3C-3S: FHA1 domain variant with three cysteines mutated to serine (C34S, C38S, C154S) (protein, left off: a dimerising Fc or GST; large carriers; small tags and cut ends) MENITQPTQQSTQATQRFLIEKFSQEQIGENIVSRVISTTGQIPIRDLSADISQVLKEKRSIKKVWTFGRNPACDYHLGNISRLSNKHFQILLGEDGNLLLNDISTNGTWLNGQKVEKNSNQLLSQGDEITVGVGVESDILSLVIFINDKFKQSLEQNKVDRIRSNLKNT | did not bind; also recorded: remained non-functional | bound specifically; also recorded: showed specific binding | – | – | – | – | – | – | – | – | – |
| 4C-4S: FHA1 variant with all four cysteines mutated to serines (protein, left off: a dimerising Fc or GST; large carriers; small tags and cut ends, FHA1 variant with all four cysteines mutated to serines) MENITQPTQQSTQATQRFLIEKFSQEQIGENIVSRVISTTGQIPIRDLSADISQVLKEKRSIKKVWTFGRNPASDYHLGNISRLSNKHFQILLGEDGNLLLNDISTNGTWLNGQKVEKNSNQLLSQGDEITVGVGVESDILSLVIFINDKFKQSLEQNKVDRIRSNLKNT | did not bind; also recorded: remained non-functional | bound specifically; also recorded: showed specific binding | – | – | – | – | – | – | – | – | – |
| G2: thermally stable FHA1 variant of D2, mutations T15A, L48F, N121Y (protein) MENITQPTQQSTQAAQRFLIEKFSQEQIGENIVFRVISTTGQIPIRDFSADISQVLKEKRSIKKVWTFGRNPACDYHLGNISRLSNKHFQILLGEDGNLLLNDISTNGTWLNGQKVEKNSYQLLSQGDEITVGVGVESDILSLVIFINDKFKQSLEQNKVDRIRSNLKNTHHHHHH | – | – | more thermally stable | 73.75 | 74.9 | 1.2 | 0.5 | 2.75 | 2.5 | ~890 nM and 890 nM | No shift |
| A12: thermally stable FHA1 variant of D2, mutations C74S, G94D, E129V, N158I (protein) MENITQPTQQSTQATQRFLIEKFSQEQIGENIVFRVISTTGQIPIRDLSADISQVLKEKRSIKKVWTFGRNPASDYHLGNISRLSNKHFQILLDEDGNLLLNDISTNGTWLNGQKVEKNSNQLLSQGDVITVGVGVESDILSLVIFINDKFKQSLEQIKVDRIRSNLKNTHHHHHH | – | – | more thermally stable | 66 | 64 | 1.25 | 1 | 2 | 2.4 | – | – |
